US20220017622A1 (Pfizer, published 2022)
Positions count from the first letter of the chain named. Where “and” joins values, the source holds several entries; their conditions need not be identical. Identical values can stand only once.

T1: human B7-H4 on cells (human, UniProt Q7Z7D3 25-282)
T1 sequence (looked up): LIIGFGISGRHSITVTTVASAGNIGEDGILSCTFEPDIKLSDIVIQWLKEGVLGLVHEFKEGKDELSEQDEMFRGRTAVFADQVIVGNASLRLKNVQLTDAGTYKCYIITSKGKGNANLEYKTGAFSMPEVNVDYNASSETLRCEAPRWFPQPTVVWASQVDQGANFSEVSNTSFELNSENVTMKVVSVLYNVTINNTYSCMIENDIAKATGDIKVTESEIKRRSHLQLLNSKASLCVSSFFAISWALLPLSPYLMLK

T2: human B7-H4 extracellular domain (human, UniProt Q7Z7D3 29-258)
T2 construct: For SPR it says only human B7-H4 ECD; also called Hu B7-H4 ECD; huB7-H4 ECD
T2 sequence: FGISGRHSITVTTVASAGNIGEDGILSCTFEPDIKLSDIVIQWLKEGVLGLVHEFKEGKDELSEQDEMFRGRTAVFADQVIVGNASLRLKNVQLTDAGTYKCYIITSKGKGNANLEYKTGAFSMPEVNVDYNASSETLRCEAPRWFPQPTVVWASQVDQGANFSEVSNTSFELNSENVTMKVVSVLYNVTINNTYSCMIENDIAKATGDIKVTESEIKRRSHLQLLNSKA

T3: human B7-H4 extracellular domain (human, UniProt Q7Z7D3 29-258)
T3 construct: Soluble ECD used as SPR analyte; also called huB7-H4 ECD; huB7-H4
T3 sequence: T2 sequence

B1: B7-H4xCD3 bispecific antibody 0077 (bispecific antibody)
heavy 1: QVQLQQWGAGLLKPSETLSLTCALYGGSFSGYYWNWIRQPPGKGLEWIGEINHSGSANYNPSLKSRVTISVDTSKNQFSLRLSSVTAADTAVYYCARGLYNWNVDRWGQGTLVTVSSASTKGPSVFPLAPCSRSTSESTAALGCLVKDYFPEPVTVSWNSGALTSGVHTFPAVLQSSGLYSLSSVVTVPSSNFGTQTYTCNVDHKPSNTKVDKTVERKCEVECPECPAPPVAGPSVFLFPPKPKDTLMISRTPEVTCVVVAVSHEDPEVQFNWYVDGVEVHNAKTKPREEQFNSTFRVVSVLTVVHQDWLNGKEYKCKVSNKGLPSSIEKTISKTKGQPREPQVYTLPPSREEMTKNQVSLTCEVKGFYPSDIAVEWESNGQPENNYKTTPPMLDSDGSFFLYSKLTVDKSRWQQGNVFSCSVMHEALHNHYTQKSLSLSPGK
light 1: not shown
heavy 2: EVQLVESGGGLVQPGGSLRLSCAASGFTFSDYYMTWVRQAPGKGLEWVAFIRNQARGYTSDHNPSVKGRFTISRDNAKNSLYLQMNSLRAEDTAVYYCARDRPSYYVLDYWGQGTTVTVSSASTKGPSVFPLAPCSRSTSESTAALGCLVKDYFPEPVTVSWNSGALTSGVHTFPAVLQSSGLYSLSSVVTVPSSNFGTQTYTCNVDHKPSNTKVDKTVERKCRVRCPRCPAPPVAGPSVFLFPPKPKDTLMISRTPEVTCVVVAVSHEDPEVQFNWYVDGVEVHNAKTKPREEQFNSTFRVVSVLTVVHQDWLNGKEYKCKVSNKGLPSSIEKTISKTKGQPREPQVYTLPPSREEMTKNQVSLTCLVKGFYPSDIAVEWESNGQPENNYKTTPPMLDSDGSFFLYSRLTVDKSRWQQGNVFSCSVMHEALHNHYTQKSLSLSPGK
light 2: DIQMTQSPSSLSASVGDRVTITCTSSQSLFNVRSQKNYLAWYQQKPGKAPKLLIYWASTRESGVPSRFSGSGSGTDFTLTISSLQPEDFATYYCKQSYDLFTFGGGTKVEIKRTVAAPSVFIFPPSDEQLKSGTASVVCLLNNFYPREAKVQWKVDNALQSGNSQESVTEQDSKDSTYSLSSTLTLSKADYEKHKVYACEVTHQGLSSPVTKSFNRGEC
notes: also called anti-B7-H4 clone 19D3
B2: B7-H4 antibody 0119 (antibody, human IgG1, kappa, V domains shown)
VH: EVQLLESGGGLVQPGGSLRLSCAASGFTFSSYAMSWVRQAPGKGLEWVSAISGGGGSTYYADSVKGRFTISRDNSKNTLYLQMNSLRAEDTAVYYCARDIQWFGESTLFDYWGQGTLVTVSS
VL: DIQMTQSPSSLSASVGDRVTITCRASQSIRSWLAWYQQKPGKAPKLLIYKASSLEGGVPSRFSGSGSGTDFTLTISSLQPEDFATYYCQQYNSYSRTFGQGTKVEIKR
B3: B7-H4 antibody 0274 (antibody, human IgG1, kappa, V domains shown)
VH: B2 VH
VL: B2 VL with Y36F
B4: B7-H4 antibody 1117 (antibody, human IgG1, kappa, V domains shown)
VH: B2 VH with F103Y
VL: B2 VL with I29T, Y36L, G56S, N92G
B5: B7-H4 antibody 0571 (antibody, human IgG1, kappa, V domains shown)
VH: B2 VH
VL: B2 VL with I29T, Y36H, G56S, N92G
B6: B7-H4 antibody 0562 (antibody, human IgG1, kappa, V domains shown)
VH: B2 VH with Y59Q
VL: B2 VL with M4L, S10T, Y36F, D70E, E81D
B7: B7-H4 antibody 0565 (antibody, human IgG1, kappa, V domains shown)
VH: B2 VH with E105R
VL: B2 VL with M4L, S10T, Y36F, D70E, E81D
B8: B7-H4 antibody 0563 (antibody, human IgG1, kappa, V domains shown)
VH: B2 VH with F103Y
VL: B2 VL with M4L, S10T, Y36F, D70E, E81D
B9: B7-H4 antibody 0414 (antibody, human IgG1, kappa, V domains shown)
VH: B2 VH
VL: B2 VL with I29T, N92G
B10: B7-H4 antibody 0572 (antibody, human IgG1, kappa, V domains shown)
VH: B2 VH
VL: B2 VL with I29T, Y36L, G56S, N92G
B11: B7-H4 antibody 1116 (antibody, human IgG1, kappa, V domains shown)
VH: B2 VH with F103Y
VL: B2 VL with I29T, Y36H, G56S, N92G
B12: B7-H4 antibody 1115 (antibody, human IgG1, kappa, V domains shown)
VH: B2 VH with F103Y
VL: B2 VL with I29T, G56S, N92G
B13: B7-H4 antibody 0570 (antibody, human IgG1, kappa, V domains shown)
VH: B2 VH
VL: B2 VL with I29T, G56S, N92G
B14: B7-H4 antibody 1113 (antibody, human IgG1, kappa, V domains shown)
VH: B2 VH with F103Y
VL: B2 VL with I29T, N92G
B15: B7-H4 antibody 0567 (antibody, human IgG1, kappa, V domains shown)
VH: B2 VH
VL: B2 VL with I29T, W32H, N92G
B16: B7-H4 antibody 0564 (antibody, human IgG1, kappa, V domains shown)
VH: B2 VH with F103H
VL: B2 VL with M4L, S10T, Y36F, D70E, E81D
B17: B7-H4 antibody 0934 (antibody, human IgG1, kappa, V domains shown)
VH: EVQLVESGGGLVQPGGSLRLSCAVSGGSFSGYYWNWVRQAPGKGLEWIGEINHSGSATYNPSLKSRVTISVDTAKNSLYLQMNSLRAEDTAVYYCARGLYNWNVDHWGQGTLVTVSS
VL: DIQMTQSPSSLSASVGDRVTITCRASQGIRNDLGWYQQKPGKAPKRLIYAASSLQSGVPSRFSGSGSGTDFTLTISSLQPEDFATYYCLQHSSYPRTFGGGTKVEIKR
notes: IgG1 mAb format
B18: B7-H4 antibody 1083 (antibody, human IgG1, kappa, V domains shown)
VH: B17 VH with V24A, V37I, A40P, L78F
VL: B17 VL with S92N, S93A
notes: IgG1 mAb format
B19: B7-H4 antibody 1081 (antibody, human IgG1, kappa, V domains shown)
VH: B17 VH with V37I, A40P, N52D, S54Q, A57T, T58K, L78F
VL: B17 VL with S92N, S93A
notes: IgG1 mAb format
B20: B7-H4 antibody 1116 (antibody, human IgG1, kappa, V domains shown)
VH: B2 VH with F103Y
VL: B2 VL with I29T, Y36H, G56S, N92G
notes: IgG1 mAb format
B21: B7-H4 antibody 1113 (antibody, human IgG1, kappa, V domains shown)
VH: B2 VH with F103Y
VL: B2 VL with I29T, N92G
notes: IgG1 mAb format
B22: B7-H4 antibody 1115 (antibody, human IgG1, kappa, V domains shown)
VH: B2 VH with F103Y
VL: B2 VL with I29T, G56S, N92G
notes: IgG1 mAb format
B23: B7-H4 antibody 1117 (antibody, human IgG1, kappa, V domains shown)
VH: B2 VH with F103Y
VL: B2 VL with I29T, Y36L, G56S, N92G
notes: IgG1 mAb format

molecular target: T1, human B7-H4 on cells; assay: cell-based or functional assay

Binder | T cell mediated tumor cell killing EC50, HCC1954-Luc [nM]
B1 | 93

molecular target: T2, human B7-H4 extracellular domain; assay: competition ELISA on coated huB7-H4 ECD; competitor biotinylated 0058 (by series, not given)

Binder | IC50
B2 | 7.52 nM and 13.7 nM
B3 | 4.2 nM
B4 | 0.15 nM
B5 | 2.1 nM
B6 | 2.4 nM
B7 | 22.7 nM
B8 | 2 nM
B9 | 6.57 nM and 8 nM
B10 | 1.7 nM
B11 | 0.16 nM
B12 | 0.42 nM
B13 | 3.1 nM
B14 | 1 nM
B15 | 5.4 nM
B16 | 35.2 nM

molecular target: T4, cyno CD3 (delta/epsilon heterodimer) (cyno, UniProt Q95LI5 22-117; Q95LI8 22-105); assay: SPR 25 C; CD3 delta/epsilon on anti-His chip, bispecific analyte
T4 construct: also called cyCD3
T4 sequence (Q95LI5 22-117, stated change not applied, chain 1 of 2): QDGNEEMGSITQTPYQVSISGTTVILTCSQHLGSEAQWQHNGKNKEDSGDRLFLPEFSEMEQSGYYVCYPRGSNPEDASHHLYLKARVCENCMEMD
T4 sequence (Q95LI8 22-105, stated change not applied, chain 2 of 2): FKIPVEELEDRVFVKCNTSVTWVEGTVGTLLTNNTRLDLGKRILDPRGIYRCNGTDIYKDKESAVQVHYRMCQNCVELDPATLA

Binder | Kd [nM] | koff [s⁻¹] | kon [M⁻¹ s⁻¹]
B1 | 13.7 | 0.00504 | 369000

molecular target: T5, human CD3 (delta/epsilon heterodimer) (human, UniProt P07766 23-126; P04234 22-105); assay: as above
T5 construct: captured on an anti-His chip, so it carries a His tag; also called huCD3
T5 sequence (P07766 23-126, stated change not applied, chain 1 of 2): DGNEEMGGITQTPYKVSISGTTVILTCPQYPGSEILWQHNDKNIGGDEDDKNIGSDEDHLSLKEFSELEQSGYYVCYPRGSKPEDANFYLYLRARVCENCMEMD
T5 sequence (P04234 22-105, stated change not applied, chain 2 of 2): as the sequence (Q95LI8 22-105, stated change not applied, chain 2 of 2) above, with V5I, K15N, V20I, T32S, N33D, N34I, A64T, N74S, L83V counted along it

Binder | Kd [nM] | koff [s⁻¹] | kon [M⁻¹ s⁻¹]
B1 | 12.7 | 0.00536 | 423000

molecular target: T3, human B7-H4 extracellular domain; assay: SPR 37 C; IgG1 on anti-hFc chip, ECD analyte;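 also: antibodies captured, then B7-H4 ECD injected at five 3-fold dilutions from 300 nM, 65 s association and 600 s dissociation, fitted to a 1:1 Langmuir model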

Binder | Kd [nM] | koff [s⁻¹] | kon [M⁻¹ s⁻¹]
B17 | 11.8 | 0.00539 | 454000
B18 | 22.6 | 0.0086 | 381000
B19 | 33.4 | 0.00962 | 288000
B20 | 2.05 | 0.00126 | 612000
B21 | 4.31 | 0.00108 | 251000
B22 | 2.62 | 0.00116 | 443000
B23 | 1.54 | 0.000949 | 620000
